Measurements published in the DeepSol protein solubility set.

Experiment: soluble on expression in E. coli; label from the status in PepcDB or PDB records

Row | Sequence | soluble on expression in E. coli
1 | MTTLGTPVSLGRRTRTGRLELEFGVRHGQTALLRDLQKAPLMVVRPFRLPCGTLMVFIVNPTGGVLGGDHSEIHVEAGAGTRVLILTQSATRVQPSPGGEWATQELHFHVGVGARLEYYPERTLPFAGSRFRQHLRADLGAGAEFGLLETLASGRVQMGERLAWADYRSEVSVYAAQERVYLDRQHFRPGPHSRAPGVLGGNDYFASGVWVAGDSAAGRPAAESPTTAPGWASGLSAGGAVWARGVAATGPALDHAARQLREQVRHDLFGAAPLVLRRLEHHHHHH | not soluble
2 | MPCVQAQYGSSPQGASPASQSYSYHSSGEYSSDFLTPEFVKFSMDLTNTEITATTSLPSFSTFMDNYSTGYDVKPPCLYQMPLSGQQSSIKVEDIQMHNYQQHSHLPPQSEEMMPHSGSVYYKPSSPPTPTTPGFQVQHSPMWDDPGSLHNFHQNYVATTHMIEQRKTPVSRLSLFSFKQSPPGTPVSSCQMRFDGPLHVPMNPEPAGSHHVVDGQTFAVPNPIRKPASMGFPGLQIGHASQLLDTQVPSPPSRGSPSNEGLCAVCGDNAACQHYGVRTCEGCKGFFKRTVQKNAKYVCLANKNCPVDKRRRNRCQYCRFQKCLAVGMVKEVVRTDSLKGRRGRLPSKPKSPQEPSPPSPPVSLISALVRAHVDSNPAMTSLDYSRFQANPDYQMSGDDTQHIQQFYDLLTGSMEIIRGWAEKIPGFADLPKADQDLLFESAFLELFVLRLAYRSNPVEGKLIFCNGVVLHRLQCVRGFGEWIDSIVEFSSNLQNMNIDISAFSCIAALAMVTERHGLKEPKRVEELQNKIVNCLKDHVTFNNGGLNRPNYLSKLLGKLPELRTLCTQGLQRIFYLKLEDLVPPPAIIDKLFLDTLPF | soluble
3 | MGSDKIHHHHHHESSFLNLSDPNYFTESNFWKDKADAESALAAAYSPIKGAMYGYFGAFDGWLNLNGRGDDIYTIKGEEVPMWNIANFLNSPSTGNDPYGALYSGIQRANIVLRYIDQIPASGITEEDRSMIKGEALFLRGYQYFLLVNNYKEVPLRLIPSNEDETNKAAATEAALWAQVEEDLDNAIKCNLPVERSTAKERITKGAAIAMLGKVYATQHKYPEAKQLLGTLLKAPYSYELMDNFEKNFTNEEEFNKESVFELAYSPDGDYSWSNESGICLGCYIPQFIGPVKSGGWAKLMPNSLIVGEFTKETRPSDADTKFDKRMYASLFFDAANYGDKVPNEKWYGNNYSMDDLWEGNEGKMAGGAPSFNVNGTAGKFLIKKNTAYYVDDKAPDNMGNKEGRSSNLRVMRFAEVLLLYAEACAKTNDPDGANYALKQIRQRAGLTEKTFAQAELMNEIEHQCLLEFFAEGHRFDDLKRWYSPSEIQLIFKANGKQGAENFQEKHLYYPIPTSELNNNTAMEQTSLWK | not soluble
4 | MGSDKIHHHHHHMSISQMQVFNKYFMPAIIETLGQQIQKFNAASRGAIMLTTAGFEGDFLQESFYQAIHGARRRVDRYAANGSASPTDLTQLKHSSVKVAGGFGPIRYEPSQMTWLEKPTAEGIEVASRHFAEALLQDQLNTAIAALVAAISNQALATVNVSAKTGLNYSVLNDAHAKFGDSSGLIVANVMSGQVYHKLIGQNLVNAQQLFEYGAVTVVDILGKTVVVTDAPALYATGTPNLQKVLGLVAGAATVSDGGDLITNIETSNGKERIETTFQADYTFGLGLKGYTWDEATGGKSPTDAELATGTNWDKVATDIKHTAGVIAIGDASK | not soluble
5 | GPVDMTERLKVMTIFGTRPEAIKMAPLVLELQKHPEKIESIVTVTAQHRQMLDQVLSIFGITPDFDLNIMKDRQTLIDITTRGLEGLDKVMKEAKPDIVLVHGDTTTTFIASLAAFYNQIPVGHVEAGLRTWDKYSPYPEEMNRQLTGVMADLHFSPTAKSATNLQKENKDESRIFITGNTAIDALKTTVKETYSHPVLEKLGNNRLVLMTAHRRENLGEPMRNMFRAIKRLVDKHEDVQVVYPVHMNPVVRETANDILGDYGRIHLIEPLDVIDFHNVAARSYLMLTDSGGVQEEAPSLGVPVLVLRDTTERPEGIEAGTLKLAGTDEETIFSLADELLSDKEAHDKMSKASNPYGDGRASERIVEAILKHFNK | soluble
6 | MAQGNQQIDNQVLHHLRQKFPEVPEDVVCECVLQNKSDLAACCEYLTKVSPRFLYSEGSQSLTDLRNHMTQLNLGVSQNTHGAVQRDAVGMNGSRTLAPSVSDGPLNVPSALSEFYQPETPSVPTHTPASLSMESTRKPQPPQHLGLYQVGGKGHAPPQAPRFNPITVTLAPNTGRNTPTSLHIHGGPQSGLNSPNSIYIRPYVTQPGSTRQVQCRAQYSPTSQPAQQIYQITHPAAPQSSWSQHQTSHVYMPISSPTNTHTHTRFTCVCARVRMPVCLIHGNGR | not soluble
7 | GPGSMIQSDIVSYVGEMGDVPDALLITPLKDRKSSVYLTKYEVARIIGERARQIVNGTSVLLDSQNGCGTGNSLELAEGCADPFAASVDPIHITKLELLQGRIPMIVRRTWPDGRTENIPVNELKVDKMLLDVQH | not soluble
8 | MGSDKIHHHHHHKIEELTAVPLQIGYEKTLHLIFPTEVKYYSIGGDYVIGEKVVNCPGIIRLKAAEENFPGETTLSVVTADTKFYSYSISYNAHPAQSYVRIGGEAPTPHTLPVGKEKQLFLIFPAGITYVDYGSTNVEVDKAEGVDNILAVKAVQPYKEDTNISVVLEGGKFYTFDLRYVPAPERFSFVIDKEDTQRVAILDEKERSYGQKERIREAVAKRTPLDLGLRDKNSGMEFEVGNIFIDGDVLLLRMTLTNRTQIGYTTDFMRFYIQDAKIRKKTAVQQLEQNILFTFDYPEEIPAHESRTFTVAMNKFTIPDKKRLIIEIQERNGGRHFLYKLKNKSLLTAEEVFRSRKQQETEDEADKILRRIAR | not soluble
9 | MSLARKNTATRQVIHIVGEGLTELFYFSHLKKILGYRYSISPRLFENNSIEKIEKKIKELLDEDVFVICVFDADVSRRSDAENKKMVSFKKKYENNPNVILCDSLQSIEYWFLLHFEDTCRHFQDSAATERALKQYLPTYDKTRKYLEKDKWVKEMLAGSKMDKACELAEKYKGRDSYSEIYKAIKKVSQNEGHHHHHH | soluble
10 | MGSDKIHHHHHHMTASTVRSPIKVQMRQTGYAARQQRAARMGGMLYQLHELTRNLLAPWVHQAQANAKMFSDPDSLWASLPGAERMAASNELFHRLGKEYEKPAWALDDVEVDGHSLPIIEREVLSKPFCRLLRFKRFSDHVELIGTMKQQPAVLVVAPLSGHHATLLRDTVRTLLRNHKVYVTDWVDARMVPLEAGAFRLEDYIAYIQEFIRHIGAERLHVVSVCQPTVPVLAAVSLMASNDEPTPRSLVMMGGPIDARRSPTQVNNLATENGIEWFQNNLIHTVPFPYPGHGRQVYPGFLQHAGFLSMNPNRHVMSHWDFYTDLVKGDLQDAQAHRQFYDEYNAVLDMPSEYYLDTIRVVFQEFLLPQGKWKVDGQLVMPSAIRNTALLSIEGELDDIAGLGQTEAVHDLCTGIDAAHRRHLVVEGAGHYGIFSGRRWREVVYPQVREFIARYDADPVGSRDPATVTPIRKRGKRA | not soluble
11 | MGSDKIHHHHHHMLDQQHIQYFKNLVGGEDFFTDLAHLNAYCYDATKERHLPSGVIFPKNEQEISQILKYCNEHRIIVVPRGAGSGFTGGALSVSGGLVLSVEKHLDKILEIDTKNLIARVEPGVINKHFQNEVEKLNLFYPPDPASENQSTLGGNVAENAGGMRAAKYGITKDYVMALRVVLANGEIIRAGKKTIKDVAGFNVAGLMIASEGCLGVISEITLKLLAKPPLKQSAMGVFNHIEDAMNAVYKTMSSGVTPVAMEFLDNLSIKAVEERFSKGLPKDAGAILITQVDGVVKEQIAWQLNEIEKHFKANCCVDFKIAQNEQEEQDLWFSRRNASQSISVYGKKKLNEDVTVPRASLPSLLQEVAKISQKYGFKIPCFGHTGDGNVHVNIMLEDPKRDLEKGHEAMEEIFQAAISLEGTLSGEHGIGLSKAKFMPLAFNHSEMELFRNIKKALDPNNILNPFKMGL | not soluble
12 | AGGPGSRARAAGARGCRLRSQLVPVRALGLGHRSDELVRFRFCSGSCRRARSPHDLSLASLLGAGALRPPPGSRPVSQPCCRPTRYEAVSFMDVNSTWRTVDRLSATACGCLG | soluble
13 | GPGSMERAATQSQSIYSNANTNSSNVNTYGNTVSSYLSNNSPNAVMYGGGNSGNGGAPSSTSVATVYASPTQASPSQAIRQQAQGAAQQNMSQSQTSTSFNAYGGGAASGSGSGFFYSTPSAQAPGAQTMYSANPSAAAMFPMRGGSTSMTPAQPTPTQMLTPQANAAAAAAAVWTNAAANINAGSKLFVGQVPAVCTEDQLRPLFAQFGTLLEIKIMREPNGRSKGSAWVRYELEESAQRAITALNEKHVVPPQTNPLRVQFAAPSTNRIPQPLSALGSIMPPSAVMQPQPQPNYATAATYATPQGYAGTTTAYMQGQYATSPNLMAVRASPQQQAAVQSASGKIEYLRSNHPGSLIYSTASPTAVDAMQQQQQQQSPQQQQVVYTTGGQMRAGVMYTPDAFAMTNQMAAAPQQPHQWCS | soluble
14 | MGLPKSAYKKLLIDCPTRVINKNCAQRVKDVSPLITNFEKWSDKRKKLYFKDEEEMVGQFHLENFNLKNNLYGRLLASPMRAEKISKLKSCRELLIPLKVVPSTGKDQHADKDKLKLVPTLDYSKSYKSSYVLNSASIVQDNLAAATSWFPISVLQTSTPKSLEVDSSTFITEYNANLHAFIKARLSVIPNVGPSSINRVLLICDKRKTPPIEIQVVSHGKGLPITQSVFNLGYLHEPTLEAIVSKDAVTNGIYLDADNDKDLIKHLYSTLLFHSVN | not soluble
15 | MRAMYDLLKQKADVWDLFTRKKEYQPSKLDEHGRFFFTEEDLKNASSPEVSRYLVENGLKVEFPENKTFAVCLTHDMDDIYPPFSHSLLSSVSCLKSLDFRGLTAPFLWRFKGPEYSPYLNFSDIMDLEEGFGAKSSFYFLASREDPVRFRYDIEDLENLLGDISDRGWEAGLHGGYYSYDNLEALNNEKKSLEKVLGKKVLGFRNHYLRFKTPETWELLADAGFGYDSTFGYSELAGFRNGMCHPFKPYNLNKEREINILEIPLTVMDVALFKASSSFEEAWRCTKDLIDTAAGLNGVITLLWHNFVFGCSFRKDWIKLYEKALQYCSEKGAWITSGEEIYRWWENGAMAGDPLEHHHHHH | soluble
16 | MGSDKIHHHHHHMSEFYGAQHRQWQEHFDGVAMADRVRELIVLPSIPEEHAGFIGSRDFFFLSTIDHRGFPTCSYKGGQPGFVKILDDTTLAFPSLDGNSMYLSMGNLSLNPKIGMLFIDFETPHRIRVHGTASVKPDDTLLAEYQEAELIVRIKIEEIFVNCPRYIHKHQRVQHSPYVPQAGCTTRTPQWKRLDSVQDVLRQPDLEKVSRMGGPITIEEYMELVLQGDA | not soluble
17 | SEDGGWNTIESDPAVFTQLLEDLGVKDVKVEEVLQLDAAFLRSLEPVHGLIFLFKWLPDQGSEQELSFSQDVDLFFANQVIQNACGTQALLSVVFNAKDLELGSELAEFKEFTKDFDPQTRGLALSNSETIRSAHNSLSGLQHFSFEFDEKEKSDSFHFISYVPFQGRIYELDGLKKGPICRGSYTAERHWTDVAISEIEKRIERYGEGEIRFNLLAVVRDPLKIWQQELLSYQTALESCSLEVERMSISMQMKEIQTRMEDEKKRRESIRRESNRRRHNMLPFIFHLIKWLHENSDLSFT | soluble
18 | TLDYNIQQQAYNLLGDNKGSVVVLNPKTGEILAMVSKPSYDPNDDALKASWAALNSNPDRPLLNRAVSGLYPPGSTFKTVTAISALENISGIQNETFNDPGQLVFNSTESLRDFGGESFGDIGFKHAYVVSSNVVFGKIGLQLGNNNLRQTAESFYFNKNIPCDGIVIDKSKFPTLKSYEKGNMAQSAIGQASVLATPIQMALVASTVANDGVMMKPHVVNEILSPNGDKIKSIEPESIGNIVSKENAATMKDFMRNVVEDGTGVNAAVEGIQVAGKTGTADHKVNGKDATPHSWFIGFAPYDNPQVAIAVIVEDGGQGGKAAAGIASKVIQTALQK | not soluble
